What is called Kd is the equilibrium constant for the complex coming apart. Low values mean higher affinity, high ones lower affinity.

Read-outs that look alike come from different tables or passages of the source.

What all share (assay): ATP/PPi exchange rate against MLP concentration
In experiment [1] the target is EntF, enterobactin nonribosomal peptide synthetase (E. coli) (UniProt P11454).
Experiment [2] concerns the target T1, EntF, enterobactin nonribosomal peptide synthetase (E. coli, UniProt P11454 1-1293).
Experiment [3] concerns the target T1, EntF, enterobactin nonribosomal peptide …. The source holds these as a separate data set.

T1 sequence (P11454 whole entry): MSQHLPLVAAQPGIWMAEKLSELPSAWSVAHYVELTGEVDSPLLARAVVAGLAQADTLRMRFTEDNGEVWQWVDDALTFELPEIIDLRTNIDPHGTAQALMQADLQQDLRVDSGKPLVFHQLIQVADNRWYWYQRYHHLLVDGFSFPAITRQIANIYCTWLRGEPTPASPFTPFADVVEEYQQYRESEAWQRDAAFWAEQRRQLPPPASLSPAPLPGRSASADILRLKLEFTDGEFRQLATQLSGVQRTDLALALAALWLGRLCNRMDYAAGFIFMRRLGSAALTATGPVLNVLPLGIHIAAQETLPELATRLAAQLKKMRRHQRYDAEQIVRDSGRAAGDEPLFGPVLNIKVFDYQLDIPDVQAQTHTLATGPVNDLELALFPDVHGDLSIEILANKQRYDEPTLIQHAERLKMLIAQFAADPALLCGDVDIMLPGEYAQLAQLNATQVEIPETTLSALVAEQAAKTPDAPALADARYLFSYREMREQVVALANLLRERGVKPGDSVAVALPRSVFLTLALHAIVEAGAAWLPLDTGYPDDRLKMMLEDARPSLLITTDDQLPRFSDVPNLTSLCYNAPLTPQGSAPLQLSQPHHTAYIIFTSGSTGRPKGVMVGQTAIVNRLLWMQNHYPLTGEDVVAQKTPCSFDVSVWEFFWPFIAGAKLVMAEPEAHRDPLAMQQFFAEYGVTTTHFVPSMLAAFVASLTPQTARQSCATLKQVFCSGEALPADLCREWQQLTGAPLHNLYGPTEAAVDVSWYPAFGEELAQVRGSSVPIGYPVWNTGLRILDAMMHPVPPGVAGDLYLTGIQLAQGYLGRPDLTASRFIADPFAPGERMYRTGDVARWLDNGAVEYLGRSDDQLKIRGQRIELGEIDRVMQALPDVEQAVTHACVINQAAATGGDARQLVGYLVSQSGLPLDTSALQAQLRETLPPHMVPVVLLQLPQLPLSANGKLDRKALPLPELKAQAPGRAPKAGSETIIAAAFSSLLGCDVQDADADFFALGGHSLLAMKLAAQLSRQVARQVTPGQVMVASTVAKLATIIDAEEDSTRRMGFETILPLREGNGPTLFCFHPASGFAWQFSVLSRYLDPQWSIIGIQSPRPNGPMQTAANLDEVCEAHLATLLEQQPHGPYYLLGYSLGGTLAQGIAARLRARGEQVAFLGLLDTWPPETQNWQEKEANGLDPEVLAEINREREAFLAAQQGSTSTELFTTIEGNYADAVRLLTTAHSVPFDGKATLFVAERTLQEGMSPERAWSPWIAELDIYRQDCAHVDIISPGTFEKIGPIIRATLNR
EntF, enterobactin nonribosomal peptide synthetase (E. coli), sequence (P11454 whole entry): as above

For “VioN, MbtH-like protein of viomycin biosynthesis (purified, tag cleaved) (natural protein)”, the Kd in experiment [1] amounted to 0.2 µM.

B1: CmnN, MbtH-like protein of capreomycin biosynthesis (purified, tag cleaved) (natural protein, Saccharothrix mutabilis subsp. capreolus, UniProt A6YEI5 1-62, looked up)
chain: MDTYLVVVNHEEQYSVWPADRPLPAGWRAEGTSGDKEQCLAHIETVWTDMRPLSVRRRAEAV
As for B1, the affinity in experiment [2], expressed as Kd, was 0.15 ± 0.007 µM.

B2: MXAN_3118, orphan MbtH-like protein (purified, tag cleaved) (natural protein, Myxococcus xanthus DK1622, UniProt Q1D7Q2 1-71, looked up)
chain: MTDEREDTTVYKVVVNHEEQYSIWPADRENALGWKDAGKQGLKAECLEYIKEVWTDMRPLSLRKKMEELKS
For B2, the Kd in experiment [2] was 0.166 ± 0.029 µM.

B3: MbtH, MbtH-like protein of mycobactin biosynthesis (purified, tag cleaved) (natural protein)
chain: MSTNPFDDDNGAFFVLVNDEDQHSLWPVFADIPAGWRVVHGEASRAACLDYVEKNWTDLRPKSLRDAMVED
In the case of B3, in experiment [3], binding was put at a Kd of 0.0546 ± 0.008 µM.

B4: BSU31959, MbtH-like protein of corynebactin biosynthesis (purified, tag cleaved) (natural protein, Bacillus subtilis strain 168, UniProt C0H3Q6 1-69, looked up)
chain: MANPFENADGTYLVLVNEEGQYSLWPGFIDVPSGWTVVHEQKGREACLDYIQSHWSDMRPNSLKTVENV
For B4, the affinity in experiment [2], expressed as Kd, was 0.31 ± 0.069 µM.

Values taken from publication PMC5902190 (Biochemistry, 2017).
